# Molecular target: fibronectin receptors (alpha5beta1) on the adherent CHO cell line (Chinese hamster (endogenous in CHO))
# Assay: radioligand binding
substance,measurement,value
human plasma fibronectin (ligand; labeled with 125Iodine (modified Chloramine-T procedure) in the binding assays),Kd,95 nM
